Among the data in PMC7072329, “Discovery of Kynurenines Containing Oligopeptides as Potent Opioid Receptor Agonists” (Biomolecules, 2020) are Ki values, retold here.

A word on the Ki: it is the dissociation constant of the complex between target and ligand, obtained from inhibition or displacement. Low readings indicate higher affinity, high ones lower affinity.

The assay has as its target T1, μ-opioid receptor (rat (endogenous in rat brain)), P33535.
T1 chain: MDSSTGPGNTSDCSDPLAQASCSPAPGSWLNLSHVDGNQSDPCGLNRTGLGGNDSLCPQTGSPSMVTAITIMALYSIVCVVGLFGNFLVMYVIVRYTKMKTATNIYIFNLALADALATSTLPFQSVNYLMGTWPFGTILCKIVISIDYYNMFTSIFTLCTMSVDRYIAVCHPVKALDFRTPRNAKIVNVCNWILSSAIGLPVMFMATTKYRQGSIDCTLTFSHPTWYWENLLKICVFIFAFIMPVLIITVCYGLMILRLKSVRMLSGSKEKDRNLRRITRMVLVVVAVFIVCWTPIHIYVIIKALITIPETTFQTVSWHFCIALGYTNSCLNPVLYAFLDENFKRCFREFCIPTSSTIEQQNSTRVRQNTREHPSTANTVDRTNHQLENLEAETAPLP
As to the kind of experiment: radioligand binding; displacement of [^3H]DAMGO from rat brain membrane homogenate by unlabelled ligand (10^-10 to 10^-5 M); 50 mM Tris-HCl pH 7.4, 35 °C, 45 min; non-specific binding with 10 μM naloxone; IC50 converted into Ki by Cheng-Prusoff, one site competition fit.

The molecule YPFF (modifications not checked) [endomorphin-2 (EM-2)] showed a Ki of 3.16 nM.
